From patent publication US20240076402A1, “HUMANIZED ANTI-LIV1 ANTIBODIES FOR THE TREATMENT OF BREAST CANCER” (Seagen Inc., priority 2017, published 2024)

Assays:
Format in all cases: in vivo, human
[1] = tested on: hormone receptor-positive/HER2-negative (HR+/HER2-) LIV-1-positive LA/MBC; assay: Phase 1 study of SGN-LIV1A: anti-tumor activity per RECIST v1.1, HR+/HER2- patients; settings: 17 efficacy evaluable HR+/HER2- patients, dose escalation
Procedure: (§1) This ongoing, phase 1 study evaluated safety, tolerability, pharmacokinetics, and anti-tumor activity of SGN-LIV1A (q3wks IV) in women with LIV-1-positive, unresectable, locally advanced or metastatic breast cancer (LA/MBC) (NCT01969643). Patients with measurable disease and >2 prior cytotoxic regimens for LA/MBC were eligible. Patients with ≥Grade 2 neuropathy were excluded. Response was assessed per RECIST v1.1; pts with stable disease (SD) or better could continue treatment until disease progression or intolerable toxicity. At completion of dose escalation in hormone receptor-positive/HER2-negative (HR+/HER2−) and triple-negative (TN) patients, expansion cohorts were opened to further evaluate safety and antitumor activity of monotherapy in TN patients. Tumor biopsies were evaluated for LIV1 expression.

[2] = tested on: triple-negative (TN) LIV-1-positive LA/MBC; assay: Phase 1 study of SGN-LIV1A: anti-tumor activity per RECIST v1.1, triple-negative patients
Procedure: as §1

[3] = tested on: women with LIV-1-positive, unresectable, locally advanced or metastatic breast cancer (LA/MBC); assay: Phase 1 study of SGN-LIV1A: safety and tolerability
Procedure: as §1
At the completion of dose escalation, multiple expansion cohorts for SGN-LIV1A monotherapy (Part A) treatment were opened to enroll up to 15 patients each with specific breast cancer subtypes at a recommended dose level to further define the safety and antitumor activity. Following an analysis of safety and activity in the 2.0 mg/kg versus 2.5 mg/kg dose cohorts, the recommended phase 2 dose was determined to be 2.5 mg/kg (maximum dose of 200 mg per cycle)

[4] = tested on: patients with LIV-1-positive LA/MBC, weight greater than or equal to 80 kg; assay: Phase 1 dose expansion continuation: safety of a total maximum dose of 250 mg per cycle, with or without GCSF; settings: 2.5 mg/kg, >=200 mg up to 250 mg per cycle
Procedure: This study is a continuation of the dose expansion cohort study for SGN-LIV1A monotherapy (Part A) of the phase 1 study described in Example 1, which includes data from 22 additional administrations of SGN-LIV1A (q3wks IV). Patients were as described in Example 1. These additional administrations were conducted to assess the safety of a total maximum dose of 250 mg per cycle. Patients were dosed at 2.5 mg/kg and each of these 22 additional administrations were greater than or equal to 200 mg per cycle due to the patients having a weight greater than or equal to 80 kg.

[5] = % of 69 patients, 0.5 to 2.8 mg/kg q3wks IV

SGN-LIV1A: anti-LIV-1 humanized antibody (hLIV22) conjugated to monomethyl auristatin E (MMAE) via a protease-cleavable valine-citrulline linker
patients with SD>=24 wks [1]: one
disease control rate (DCR=CR+PR+SD) ([1]; 10 SD): 59%
confirmed PR rate ([2]; 44 efficacy evaluable TN patients): 21%
objective response rate (ORR) ([2]; 44 efficacy evaluable TN patients (dose escalation plus expansion cohorts), 14 PR): 32%
DCR ([2]; 44 efficacy evaluable TN patients, 14 PR, 14 SD): 64%
clinical benefit rate (CBR=CR+PR+SD>=24 weeks) ([2]; 44 efficacy evaluable TN patients, 16 patients): 36%
median PFS ([2]; TN patients, 95% CI: 6.1, 17.1): 11.3 weeks
febrile neutropenic events or neutropenia-associated SAEs ([3]; 2.0 mg/kg (N=26)): no febrile neutropenic events or neutropenia-associated SAEs
incidence of Grade 3 or higher neutropenia AEs ([3]; 2.5 mg/kg dose level of Part A (monotherapy)): 57%
febrile neutropenic events or neutropenia-associated SAEs ([3]; 2.5 mg/kg, doses <=200 mg (N=18)): no febrile neutropenic events or neutropenia-associated SAEs
patients experiencing SAEs associated with neutropenia ([3]; 2.5 mg/kg, doses >200 mg (N=11)): 5 of 11
febrile neutropenia ([3]; 2.5 mg/kg, doses >200 mg (N=11), includes the one treatment related death due to sepsis): 2 of 11
dose-limiting toxicities (DLTs) ([3]; 19 DLT-evaluable patients, doses of 0.5 to 2.8 mg/kg q3wks IV): No dose-limiting toxicities (DLTs) occurred
treatment-related deaths ([3]; 69 patients, total dose exceeded 200 mg per cycle, no other treatment-related deaths on-study): one treatment-related death due to sepsis
AEs >=Grade 3: anemia [3, 5]: 15%
AEs >=Grade 3: neutropenia [3, 5]: 25%
treatment-emergent AE: abdominal pain [3, 5]: 25%
treatment-emergent AE: alopecia [3, 5]: 36%
treatment-emergent AE: constipation [3, 5]: 30%
treatment-emergent AE: decreased appetite [3, 5]: 33%
treatment-emergent AE: diarrhea [3, 5]: 25%
treatment-emergent AE: fatigue [3, 5]: 59%
treatment-emergent AE: nausea [3, 5]: 51%
treatment-emergent AE: peripheral neuropathy [3, 5]: 44%
treatment-emergent AE: neutropenia ([3]; all grades, % of 69 patients, 0.5 to 2.8 mg/kg q3wks IV): 25%
patients who discontinued treatment due to AEs ([3]; of 69 patients): Seven
febrile neutropenia ([3]; of 69 patients, both had a total dose exceeding 200 mg per cycle): 2 patients
incidence of Grade 3 or higher neutropenia AEs ([3]; overall monotherapy study population): 39%
maximum tolerated dose ([3]; q3wks IV, not exceeded at the highest dose): ≥ 2.8 mg/kg
administrations resulting in development of neutropenia ([4]; co-administered with GCSF, 7 administrations): none
administrations resulting in development of neutropenia ([4]; not co-administered with GCSF, 5 of 15 administrations): 33.3%
